Assay results from article PMC12912276 (Nature cell biology, 2025).

Biological target: T1, His-SUMO-C-GB1 (SETD2 region C) (UniProt Q9BYW2 817-1322)
T1 sequence (looked up): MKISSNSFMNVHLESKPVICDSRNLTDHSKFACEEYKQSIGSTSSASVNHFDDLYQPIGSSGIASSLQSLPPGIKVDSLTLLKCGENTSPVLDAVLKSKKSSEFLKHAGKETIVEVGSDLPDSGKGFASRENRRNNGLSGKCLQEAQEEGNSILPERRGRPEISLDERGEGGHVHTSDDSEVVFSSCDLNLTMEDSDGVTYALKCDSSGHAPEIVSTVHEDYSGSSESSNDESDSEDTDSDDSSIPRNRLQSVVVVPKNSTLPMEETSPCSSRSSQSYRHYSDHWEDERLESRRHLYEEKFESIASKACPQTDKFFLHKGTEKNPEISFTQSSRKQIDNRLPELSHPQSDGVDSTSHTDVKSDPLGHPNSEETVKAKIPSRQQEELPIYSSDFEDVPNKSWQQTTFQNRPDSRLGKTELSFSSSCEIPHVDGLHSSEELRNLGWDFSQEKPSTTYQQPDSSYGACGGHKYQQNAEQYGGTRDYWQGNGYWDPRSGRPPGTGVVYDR
Assay: pull-down

B1: GST-lamin A-CT (387-664 a.a.) (domain or fragment, human, UniProt P02545 387-664, looked up)
chain: LRLSPSPTSQRSRGRASSHSSQTQGGGSVTKKRKLESTESRSSFSQHARTSGRVAVEEVDEEGKFVRLRNKSNEDQSMGNWQIKRQNGDDPLLTYRFPPKFTLKAGQVVTIWAAGAGATHSPPTDLVWKAQNTWGCGNSLRTALINSTGEEVAMRKLVRSVTVVEDDEDEDGDDLLHHHHGSHCSSSGDPAEYNLRSRTVLCGTCGQPADKASASGSGAQVGGPISSGSSASSVTVTRSYRSVGGSGGGSFGDNLVTRSYLLGNSSPRTQSPQNCSIM
B1: binds.
